Entries after “also recorded” stand apart in the source; their conditions may differ.
Key:
GC-A receptor [1] = molecular target: T1, GC-A receptor (Homo sapiens, UniProt P16066); test: Competitive binding to GC-A receptor (FIG. 7); conditions: glycosylated recombinant human proBNP vs hBNP
T1 sequence (P16066 33-1061): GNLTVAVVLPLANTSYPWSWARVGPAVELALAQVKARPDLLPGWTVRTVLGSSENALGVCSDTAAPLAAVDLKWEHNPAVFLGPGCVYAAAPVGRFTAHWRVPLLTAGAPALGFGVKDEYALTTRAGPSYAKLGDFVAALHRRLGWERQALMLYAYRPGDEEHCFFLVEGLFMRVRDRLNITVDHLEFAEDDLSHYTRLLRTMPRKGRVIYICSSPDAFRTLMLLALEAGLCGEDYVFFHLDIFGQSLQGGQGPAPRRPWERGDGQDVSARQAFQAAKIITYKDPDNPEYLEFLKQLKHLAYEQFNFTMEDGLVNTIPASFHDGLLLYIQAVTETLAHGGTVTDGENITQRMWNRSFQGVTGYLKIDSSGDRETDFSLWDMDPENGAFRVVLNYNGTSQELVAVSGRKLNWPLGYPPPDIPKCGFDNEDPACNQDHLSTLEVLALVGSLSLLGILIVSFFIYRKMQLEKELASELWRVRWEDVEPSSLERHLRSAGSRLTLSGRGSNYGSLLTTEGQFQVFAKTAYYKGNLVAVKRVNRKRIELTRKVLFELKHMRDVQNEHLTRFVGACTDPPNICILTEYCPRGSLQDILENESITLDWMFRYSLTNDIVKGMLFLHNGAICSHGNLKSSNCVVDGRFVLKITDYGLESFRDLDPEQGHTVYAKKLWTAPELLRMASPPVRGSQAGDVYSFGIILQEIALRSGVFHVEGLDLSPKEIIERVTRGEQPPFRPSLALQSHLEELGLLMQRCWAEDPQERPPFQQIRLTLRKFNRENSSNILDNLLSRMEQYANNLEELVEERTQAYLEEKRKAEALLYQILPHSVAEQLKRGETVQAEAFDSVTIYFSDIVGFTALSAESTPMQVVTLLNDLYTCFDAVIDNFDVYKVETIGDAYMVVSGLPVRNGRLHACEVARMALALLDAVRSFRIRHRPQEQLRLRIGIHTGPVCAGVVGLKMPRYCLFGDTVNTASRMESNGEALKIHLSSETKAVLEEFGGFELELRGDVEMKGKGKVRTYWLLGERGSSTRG
Excerpt: FIG. 7 is a graph showing competitive binding of glycosylated recombinant human proBNP to GC-A receptor relative to hBNP.

[2] = Pharmacokinetics after i.v. bolus in cynomolgus monkeys (FIGS. 9, 10); format: in vivo, cynomolgus monkey; conditions: for circulating (plasma) half-life compared to hBNP: i.v., male Cyno monkeys
Excerpt: Six adult male cynomolgus monkeys (5-6 kg) from the same colony were randomly selected for this study. In the morning of the experiment day, each monkey was quickly anesthetized by inhalation of 5% isoflurance/95% oxygen. Once the animal was unconscious, the isoflurance was reduced to 1.5% and a sterile catheter was inserted into the urinary bladder. Another catheter was connected to a cephalic vein in the right or left arm of the monkey for compound delivery. The anesthesia was discontinued. The conscious monkey was seated in a restraining chair and allowed to stabilize for 1 hour. The conscious monkey received two bolus doses (1 nmol/kg and 3 nmol/kg) of each human BNP analog in 1 ml of saline via cephalic vein injection followed by a flush with 3 ml of saline. One hour of washing-out period was required between the two administrations. Two ml of blood were drawn into a EDTA tube containing 150 kallikrein-inactivating units aprotonin via a cephalic vein in the another arm of the monkey at the following 8 time points: baseline (within 2 min prior to dosing), 2, 5, 10, 15, 30, 60 and 120 min. The collected samples were kept on ice prior to centrifugation at 4° C. The plasma from each time point was aliquoted to 4 Eppendorff tubes with approximately […]. For urine collection, the bladder was emptied and flushed with 5 ml of sterile water. The urine was collected to a 15 ml regular polypropylene tube in every 20 min at the following time points: −60, −40, −20, 0, 20, 40, 60, 80, 100 and 120 min. Weighing of tube was required before and after collection. The urine sample from each time point was aliquoted to 4 Eppendorf tubes with […]. All plasma and urine samples were kept at −80° C. and delivered on dry ice. Material supply: […] of hBNP were required for 8 cynos with the body weight of 6 kg at the doses of 1 nmol/kg and 3 nmol/kg, respectively. The material for each dose was weighed to a 15 ml sterile tube and dissolved in 8 ml of sterile saline prior to injection. Approximately 1 ml of the material at each dose was injected to each animal. The injection volume (ml) of the material to each animal was equal to animal body weight (kg) divided by six.

cGMP = cGMP levels in plasma and urine after i.v. bolus in cynomolgus monkeys; format: in vivo, cynomolgus monkey
Excerpt: Six adult male cynomolgus monkeys (5-6 kg) from the same colony were randomly selected for this study. In the morning of the experiment day, each monkey was quickly anesthetized by inhalation of 5% isoflurance/95% oxygen. Once the animal was unconscious, the isoflurance was reduced to 1.5% and a sterile catheter was inserted into the urinary bladder. Another catheter was connected to a cephalic vein in the right or left arm of the monkey for compound delivery. The anesthesia was discontinued. The conscious monkey was seated in a restraining chair and allowed to stabilize for 1 hour. The conscious monkey received two bolus doses (1 nmol/kg and 3 nmol/kg) of each human BNP analog in 1 ml of saline via cephalic vein injection followed by a flush with 3 ml of saline. One hour of washing-out period was required between the two administrations. Two ml of blood were drawn into a EDTA tube containing 150 kallikrein-inactivating units aprotonin via a cephalic vein in the another arm of the monkey at the following 8 time points: baseline (within 2 min prior to dosing), 2, 5, 10, 15, 30, 60 and 120 min. The collected samples were kept on ice prior to centrifugation at 4° C. The plasma from each time point was aliquoted to 4 Eppendorff tubes with approximately […]. For urine collection, the bladder was emptied and flushed with 5 ml of sterile water. […]

GC-A receptor [3] = molecular target: T1, GC-A receptor; test: Cyclic GMP release from cells expressing the human GC-A receptor; format: cell-based; conditions: vs hBNP
Method: Pursuant to the present invention, the effects of hBNP, unglycosylated proBNP, and O-link glycosylated proBNP on cyclic GMP release from cells expressing the human GC-A receptor were determined.

NPR-A receptor = molecular target: T2, NPR-A receptor (Homo sapiens, UniProt P16066); test: NPR-A activation in human aorta endothelial cells (FIG. 8); format: cell-based
T2 construct: endogenous in cells; host or cells: human aorta endothelial cells
T2 sequence (P16066 33-1061): T1 sequence (P16066 33-1061)
Excerpt: The graph provides a direct activity comparison of hBNP relative to proBNP.
With respect to proBNP and BNP, total “Natriuretic Activity” in a blood sample is defined by the cumulative activity of proBNP and hBNP. When measuring against this receptor however it should be appreciated that the activity of other relevant natriuretic peptides, such as ANP and proANP can and should also be taken into consideration.

[4] = BNP as active hormone; cited from earlier work

| competitive binding to GC-A receptor relative to hBNP (GC-A receptor [1]) | inducing cellular cyclic GMP release (receptor activation) (GC-A receptor [3]) | potency in cyclic GMP release assay (GC-A receptor [3]) | activity against the NPR-A receptor (NPR-A receptor) | Compound | PK profile compared to BNP ([2]; conscious restrained cynomolgus monkeys, i.v. bolus) | metabolism in the blood ([2]; cynomolgus monkeys) | circulating (plasma) half-life compared to hBNP [2] | circulating (plasma) half-life compared to hBNP ([2]; listed as glycosylated proBNP) | effects on cGMP levels in plasma compared to BNP (cGMP; plasma) | effects on cGMP levels in urine compared to BNP (cGMP; urine) | potency on NPR-A activation compared to hBNP (NPR-A receptor) | half-life [4] |
| --- | --- | --- | --- | --- | --- | --- | --- | --- | --- | --- | --- | --- |
| less active | equivalent to hBNP | less potent than hBNP | exhibit activity | proBNP: 108 amino acid human BNP precursor protein, O-link glycosylated, recombinantly expressed in CHO cells | extended PK profile | not metabolized in the blood | longer plasma half-life; also recorded: substantial increase in circulating half-life | greater than that of hBNP | reduced effects | reduced effects | lower activity than hBNP; also recorded: reduced potency |  |
|  |  |  |  | CC[C@H](C)[C@@H]1NC(=O)[C@H](CCCNC(=N)N)NC(=O)[C@H](CC(=O)O)NC(=O)[C@H](CCSC)NC(=O)[C@H](CCCCN)NC(=O)[C@H](CCCNC(=N)N)NC(=O)CNC(=O)[C@H](Cc2ccccc2)NC(=O)[C@@H](NC(=O)CNC(=O)[C@H](CO)NC(=O)CNC(=O)[C@H](CCC(N)=O)NC(=O)[C@@H](NC(=O)[C@H](CCSC)NC(=O)[C@H](CCCCN)NC(=O)[C@@H]2CCCN2C(=O)[C@@H](N)CO)C(C)C)CSSC[C@@H](C(=O)N[C@@H](CCCCN)C(=O)N[C@H](C(=O)N[C@@H](CC(C)C)C(=O)N[C@@H](CCCN=C(N)N)C(=O)N[C@@H](CCCN=C(N)N)C(=O)N[C@@H](Cc2cnc[nH]2)C(=O)O)C(C)C)NC(=O)CNC(=O)[C@H](CC(C)C)NC(=O)CNC(=O)[C@H](CO)NC(=O)[C@H](CO)NC(=O)[C@H](CO)NC(=O)[C@H](CO)NC1=O [hBNP] |  |  |  |  |  |  |  | approximately 20 minutes |

Reference: US20080312152A1, “Glycosylated Probnp” (priority 2005, published 2008)
